This is an account of results in patent publication US20190194299A1 (Dana-Farber, published 2019).

Sequences and labels used below:
T1: Spike (S) protein of live MERS-CoV EMC/2012 (wild type virus) (MERS-CoV, UniProt K9N5Q8 18-1353)
T1 sequence: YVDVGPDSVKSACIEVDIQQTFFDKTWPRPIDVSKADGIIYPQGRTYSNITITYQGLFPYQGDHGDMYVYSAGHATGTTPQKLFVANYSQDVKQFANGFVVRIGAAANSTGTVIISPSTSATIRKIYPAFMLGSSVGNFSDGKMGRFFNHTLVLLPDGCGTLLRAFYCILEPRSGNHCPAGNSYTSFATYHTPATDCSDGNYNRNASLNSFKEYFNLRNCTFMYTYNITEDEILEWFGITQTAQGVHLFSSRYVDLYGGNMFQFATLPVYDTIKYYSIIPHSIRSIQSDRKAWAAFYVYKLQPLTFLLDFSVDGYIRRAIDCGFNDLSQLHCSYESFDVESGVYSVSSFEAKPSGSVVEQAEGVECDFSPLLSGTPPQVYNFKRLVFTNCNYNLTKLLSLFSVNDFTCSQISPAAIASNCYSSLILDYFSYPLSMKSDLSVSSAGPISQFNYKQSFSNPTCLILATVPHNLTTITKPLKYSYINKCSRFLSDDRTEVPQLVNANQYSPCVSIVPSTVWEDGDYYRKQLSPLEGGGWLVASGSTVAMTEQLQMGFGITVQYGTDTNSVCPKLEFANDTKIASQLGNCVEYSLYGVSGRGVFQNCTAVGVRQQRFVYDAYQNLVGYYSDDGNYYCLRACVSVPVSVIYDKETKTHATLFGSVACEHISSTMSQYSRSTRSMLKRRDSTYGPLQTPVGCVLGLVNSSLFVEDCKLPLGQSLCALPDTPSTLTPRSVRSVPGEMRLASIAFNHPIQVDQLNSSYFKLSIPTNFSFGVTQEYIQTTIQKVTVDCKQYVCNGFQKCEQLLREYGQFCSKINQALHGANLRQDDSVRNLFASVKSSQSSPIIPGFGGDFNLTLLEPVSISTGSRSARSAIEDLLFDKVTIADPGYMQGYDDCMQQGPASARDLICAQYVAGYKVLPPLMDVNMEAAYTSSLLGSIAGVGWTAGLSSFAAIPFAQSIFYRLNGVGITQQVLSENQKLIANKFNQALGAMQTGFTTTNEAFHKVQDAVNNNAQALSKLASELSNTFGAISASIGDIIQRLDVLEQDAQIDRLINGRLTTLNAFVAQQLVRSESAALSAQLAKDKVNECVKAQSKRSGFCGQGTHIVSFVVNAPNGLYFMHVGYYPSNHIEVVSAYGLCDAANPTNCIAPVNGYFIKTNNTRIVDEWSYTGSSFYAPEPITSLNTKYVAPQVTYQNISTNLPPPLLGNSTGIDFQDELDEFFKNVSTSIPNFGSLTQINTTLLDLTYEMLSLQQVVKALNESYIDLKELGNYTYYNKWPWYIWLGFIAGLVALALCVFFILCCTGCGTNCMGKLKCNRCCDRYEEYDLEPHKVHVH

B1: 1E9 scFvFc (scFv, V domains shown)
VH: QVQLVQSGGGVVQPGRSLRLSCVASEFTFNTYGMHWVRQAPGKGLEWVAAISYDGTKKFYADSLKGRFTISRDNSKNTLYLQMNSLRSEDTAVYYCARSGDSDAFDIWGQGTMVTVSS
VL: SYELTQPPSVSVSPGQTATITCSGDELGDKFAFWYQQKPGQSPVLVIYQDSKRPSGIPERFSGSNSGNTATLTISGTQALDEADYYCQAWDSNSYVFGTGTKVTVL
B2: 3A1 scFvFc (scFv, V domains shown)
VH: QVQLVQSGAEVKKPGSSVKVSCKASGGTFSSYAVSWVRQAPGQGLEWVGRIIPIFGKANYAQKFQGRVTITADKSTSTAYMELSSLRPEDTAVYYCARDQGISANFKDAFDIWGQGTTVTVSS
VL: ETTLTQSPATLSVSPGERATLSCRASESVGSNLAWYQQKPGQAPSLLIYGASTRATGIPDRFSGSGSGTDFTLTISSLQSEDFAAYYCQQYNNWPLTFGPGTKVEIK
B3: 3A1 IgG1 (antibody, V domains shown)
VH: QVQLVQSGAEVKKPGSSVKVSCKASGGTFSSYAVSWVRQAPGQGLEWVGRIIPIFGKANYAQKFQGRVTITADKSTSTAYMELSSLRPEDTAVYYCARDQGISANFKDAFDIWGQGTTVTVSS
VL: ETTLTQSPATLSVSPGERATLSCRASESVGSNLAWYQQKPGQAPSLLIYGASTRATGIPDRFSGSGSGTDFTLTISSLQSEDFAAYYCQQYNNWPLTFGPGTKVEIK
B4: 1F8 scFvFc (scFv, V domains shown)
VH: EVQLVQSGAEVKEPGSSVKVSCKASGGTFGSYAINWVRQAPGQRLEWMGWIDAANGNTKYSQKFQGRVTITGDTSASTAYMELSSLRSEDTAVYYCARDRWMTTRAFDIWGQGTMVTVSS
VL: QPVLTQPPSASGTPGQRVTISCSGSSSNIGSNYVFWYQQLPGMAPKLLISRNNQRPSGVPDRFSGSKSGTSASLAISGPQSEDEADYYCAAWDDSLRGPVFGGGTRVTVL
B5: 1F8 IgG1 (antibody, V domains shown)
VH: EVQLVQSGAEVKEPGSSVKVSCKASGGTFGSYAINWVRQAPGQRLEWMGWIDAANGNTKYSQKFQGRVTITGDTSASTAYMELSSLRSEDTAVYYCARDRWMTTRAFDIWGQGTMVTVSS
VL: QPVLTQPPSASGTPGQRVTISCSGSSSNIGSNYVFWYQQLPGMAPKLLISRNNQRPSGVPDRFSGSKSGTSASLAISGPQSEDEADYYCAAWDDSLRGPVFGGGTRVTVL
B6: 3B12 scFvFc (scFv, V domains shown)
VH: QVQLVQSGAEVKKPGSSVKVSCKASGGTFSSYAISWVRQAPGQGLEWMGGIIPIFGTANYAQKFQGRVTITADKSTSTAYMELSSLRSEDTAVYYCARASYCSTTSCASGAFDIWGQGTLVTVSS
VL: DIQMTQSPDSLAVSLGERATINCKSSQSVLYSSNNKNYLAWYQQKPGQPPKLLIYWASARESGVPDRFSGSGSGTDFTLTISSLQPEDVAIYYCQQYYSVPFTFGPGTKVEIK
B7: 3B11 IgG1 (antibody, V domains shown)
VH: QVQLVQSGAEVKKPGSSVKVSCKASGGTFSSYAISWVRQAPGQGLEWMGGIIPIFGTANYAQKFQGRVTITADKSTSTAYMELSSLRSEDTAVYYCARVGYCSSTSCHIGAFDIWGQGTTVTVSS
VL: ETTLTQSPGTLSLSPGERATLSCRASQSVSSSIAWYQQKPGQAPRLLMFDSSTRATGIPDRFSGSGSGTDFTLNISSLEPEDFAVYYCQQYSSSPYTFGQGTKLEIK

In the assay the target is T1, Spike (S) protein of live MERS-CoV …. The assay is described as follows: cell-based or functional assay.
For the molecule B1, the “IC50 (PRNT50, live wt. virus)” value came out at 3.21 µg/mL.

Consider B2, for which the “IC50 (PRNT50, live wt. virus)” value is 1.46 µg/mL.

Consider B3, for which the “IC50 (PRNT50, live wt. virus)” value stood at 4.5 µg/mL.

As to B4, the “IC50 (PRNT50, live wt. virus)” value is 6.27 µg/mL.

For B5, the “IC50 (PRNT50, live wt. virus)” value was 4.05 µg/mL.

On to B6, for which the “IC50 (PRNT50, live wt. virus)” value was 1.25 µg/mL.

Consider B7, for which the “IC50 (PRNT50, live wt. virus)” value turned out to be 3.5 µg/mL.
